The source of these data is patent US20260035452A1 (THE UNIVERSITY OF BIRMINGHAM, priority 2022, published 2026).

The test system of test [1] is dorsal air pouch of mice. Nature of the test: In vivo air pouch model. The note with it: 1 μg/mice into air pouch, 24 h. As for the experimental part:
FIG. 3: Mice were treated with IL-17 vehicle (Ctrl), IL-17 (1 μg/mice) alone (IL-17) or peptide (FM-0410) (1 μg/mice) and thereafter total cell number from pouches inflammatory exudates was evaluated at 24 h. Data were expressed as millions of cells for pouch and presented as means±S.D. of n=7 mice per group. Statistical analysis was conducted by one-way ANOVA followed by Bonferroni's for multiple comparisons. ^##P≤0.01, ^###P≤0.005 vs Ctrl group; *P≤0.05 vs IL-17 group.
FIG. 4: Inflammatory supernatants obtained from the pouch cavities were assayed using a Proteome Profiler Cytokine Array for Ctrl, IL-17 and FM-0410 experimental group. Densitometric analysis is presented as heatmap. Data (expressed as INT/mm2) are presented as means±S.D. of positive spots of three independent experiments run each with n=7 mice per group.
FIG. 5: Mice were treated with IL-17 vehicle (Ctrl), IL-17 (1 μg/mice), or peptide (FM-0410) (1 μg/mice) and inflammatory fluids were assayed by Elisa for IL-6. Data were expressed as pg/ml and presented as means±S.D. of n=7 mice per group. Statistical analysis was conducted by one-way ANOVA followed by Bonferroni's for multiple comparisons. ^##P≤0.01 vs CTRL group. […]
Specifically, dorsal air pouches were prepared by injection of 2.5 ml of air on day 0 and day 3 as previously described (Maione et al., 2009). […] Inflammatory exudates were collected and measured to evaluate the level of inflammatory cyto-chemokines. Cell number was determined by TC20 automated cell counter (Bio-Rad, Milan, Italy) using Bio-Rad's TC20 automated cell counter uses disposable slides, TC20 trypan blue dye (0.4% trypan blue dye w/v in 0.81% sodium chloride and 0.06% potassium phosphate dibasic solution) and a CCD camera to count cells based on the analyses of capture images (Maione et al., 2018).
Methods: The levels of IL-6 in the cellular and air pouch inflammatory supernatants at 24 h were measured using commercially available enzyme-linked immunosorbent assay kit (ELISA kit, R&D System, Milan, Italy) according to the manufacturer instructions. […]

Another test concerns the target IL-17RA (Homo sapiens, UniProt Q96F46). As to conditions: cited from earlier work.
In test [2] the test system is dorsal air pouch of mice. The note with it: single administration 1 μg/pouch into 6-day old air pouch; previous studies; cited from earlier work.
A further test deals with neutrophils. Nature of the test: Transwell chemotaxis assay. The format is cell-based, human. Here is the method: The cells migration after IL-17 (10-500 ng/ml), FM-0410 (10-500 ng/ml) or N-Formylmethionine-leucyl-phenylalanine (fmlp; 10^−6 M) treatment was quantified using CountBright™ Absolute Counting Beads. Data were presented as means±S.D. of n=3 healthy donors. Statistical analysis was conducted by one-way ANOVA followed by Bonferroni's for multiple comparisons. ^#P≤0.05, ^##P≤0.01, ^###P≤0.001, ^####P≤0.0001 vs Ctrl group; ^+P≤0.05 vs IL-17. Neutrophil isolation: Blood was taken according to local research ethics committee approval (QMERC2014/61). Informed consent was provided according to the Declaration of Helsinki. All blood samples were collected on the day of experiments from healthy donors and immediately used. Each condition has 3 biological replicates (3 different donors). Neutrophils were isolated using a double density histopaque gradient and hypotonic lysis as described previously. Transwell chemotaxis assay: Chemotaxis was assessed using a transwell assay. […] After 2 hours at 37° C., neutrophils were collected from the bottom wells and quantified by flow cytometry using CountBright™ Absolute Counting Beads (Thermofisher, Rugby, UK) as previously described.

B1: IL-17: recombinant mouse IL-17 purchased from R&D System; full-length cytokine used as comparator and stimulus (protein, UniProt Q62386 26-158, looked up)
Interleukin-17A: AAIIPQSSACPNTEAKDFLQNVKVNLKVFNSLGAKVSSRRPSDYLNRSTSPWTLHRNEDPDRYPSVIWEAQCRHQRCVNAEGKLDHHMNSVLIQQEILVLKREPESCPFTFRVEKMLVGVGCTCVASIVRQAA
As to B1, in the test with dorsal air pouch of mice [1], the “cyto-chemokines profile of pouch fluid (Proteome Profiler Cytokine Array)” value is given as “significant increase of cyto-chemokines profile compared to ctrl group”, the “level of IL-6 in pouch fluids” value is given as “increased level of IL-6 compared to control group” and the “number of inflammatory leukocytes (total cell number from pouch exudates)” value was “significant differences in the number of inflammatory leukocytes compared to control group”. Further, the “affinity of IL-17RA for IL-17A compared to IL-17F” value with IL-17RA is recorded as around 100 fold. Further, the “time of peak of leukocyte infiltration” value in the test on dorsal air pouch of mice [2] is on record as 24 h. The “chemotactic activity compared to positive control fmlp (10^−6 M)” value in the test on neutrophils (500 ng/ml) is recorded as “almost similar to positive control fmlp”. Also, the “chemotactic effect on neutrophils” value with neutrophils (10-500 ng/ml, vs Control group) is recorded as “concentration-dependent chemotactic effect”.
